Data published in publication PMC3493473.

How the values were obtained:
[1] = molecular target: T1, ROP18-kinase domain (ROP18-KD) (Toxoplasma gondii) (UniProt Q2PAY2)
T1 sequence: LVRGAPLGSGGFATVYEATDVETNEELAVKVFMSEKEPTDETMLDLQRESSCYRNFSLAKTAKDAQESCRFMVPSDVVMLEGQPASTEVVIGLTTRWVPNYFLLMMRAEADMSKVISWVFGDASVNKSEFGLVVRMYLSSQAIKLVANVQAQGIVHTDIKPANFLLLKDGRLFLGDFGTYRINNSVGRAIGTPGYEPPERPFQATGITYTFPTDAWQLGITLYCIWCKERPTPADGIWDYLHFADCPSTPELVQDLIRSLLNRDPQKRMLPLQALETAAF

[2] = molecular target: full length ROP18 (ROP18-FL), recombinant (Toxoplasma gondii (type I RH strain))

With “recombinant ROP5 (rROP5) (from UniProt F2YGR7 25-549) (natural protein)” the in vitro 32P kinase activity of ROP18-KD (100 ng) on dMBP with against without rROP5 (200 ng), fold increase (Figure 5E) [1] was 12 fold and the in vitro 32P kinase activity of ROP18-FL (25 ng) on immunoprecipitated Irgb6 with against without rROP5 (50 ng), fold increase (Figure 5F) [2] was 12 fold.
